Measurements as given in patent US20040081647A1 (published 2004).

Target: T1, human TNFα fusion protein with an N-terminal S-Tag (human, UniProt P01375 77-233)
T1 construct: Constructed, expressed and purified by the applicants; also called S-TNF; not shown: 15 amino acid S-Tag peptide (Novagen)
Test: indirect ELISA: sp55 from conditioned media captured on Ni-NTA wells, S-TNF at 1 µg/mL, S-protein-HRP, absorbance at 370 nm

T1 sequence (P01375 77-233): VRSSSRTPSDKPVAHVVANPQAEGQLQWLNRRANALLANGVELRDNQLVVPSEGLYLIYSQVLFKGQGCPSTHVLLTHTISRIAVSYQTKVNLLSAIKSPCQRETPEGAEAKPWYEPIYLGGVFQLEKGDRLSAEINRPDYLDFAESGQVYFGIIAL

B1: sp55 address domain (human TNFR-1 ecto-domain residues 30-211) with C-terminal myc and His6 tags (receptor)
chain: DAAQPARRAVRSLVPHLGDREKRDSVCPQGKYIHPQNNSICCTKCHKGTYLYNDCPGPGQDTDCRECESGSFTASENHLRHCLSCSKCRKEMGQVEISSCTVDRDTVCGCRKNQYRHYWSENLFQCFNCSLCLNGTVHLSCQEKQNTVCTCHAGFFLRENECVSCSNCKKSLECTKLCLPQIENVKGTEDSGTTRGGPEQKLISEEDLNSAVDHHHHHH
notes: also called p55FL-myc-his; p55FL
  fold elevation of S-TNF binding over non-specific binding in control samples: 3 fold
